Reference: patent US20240317865A1, “ANTIBODIES AGAINST INTEGRIN ALPHA 11 BETA 1” (MOMENTA PHARMACEUTICALS, INC., priority 2020, published 2024)
Numbering of substitutions follows the chain as printed. Entries after “also recorded” stand apart in the source; their conditions may differ.

T1: adhesion of CHO-K1 cells expressing human α11 to rat tail type I collagen (Homo sapiens, UniProt Q9UKX5)
T1 construct: expressed in transfected cells; host or cells: CHO-K1
T1 sequence (Q9UKX5 23-1188): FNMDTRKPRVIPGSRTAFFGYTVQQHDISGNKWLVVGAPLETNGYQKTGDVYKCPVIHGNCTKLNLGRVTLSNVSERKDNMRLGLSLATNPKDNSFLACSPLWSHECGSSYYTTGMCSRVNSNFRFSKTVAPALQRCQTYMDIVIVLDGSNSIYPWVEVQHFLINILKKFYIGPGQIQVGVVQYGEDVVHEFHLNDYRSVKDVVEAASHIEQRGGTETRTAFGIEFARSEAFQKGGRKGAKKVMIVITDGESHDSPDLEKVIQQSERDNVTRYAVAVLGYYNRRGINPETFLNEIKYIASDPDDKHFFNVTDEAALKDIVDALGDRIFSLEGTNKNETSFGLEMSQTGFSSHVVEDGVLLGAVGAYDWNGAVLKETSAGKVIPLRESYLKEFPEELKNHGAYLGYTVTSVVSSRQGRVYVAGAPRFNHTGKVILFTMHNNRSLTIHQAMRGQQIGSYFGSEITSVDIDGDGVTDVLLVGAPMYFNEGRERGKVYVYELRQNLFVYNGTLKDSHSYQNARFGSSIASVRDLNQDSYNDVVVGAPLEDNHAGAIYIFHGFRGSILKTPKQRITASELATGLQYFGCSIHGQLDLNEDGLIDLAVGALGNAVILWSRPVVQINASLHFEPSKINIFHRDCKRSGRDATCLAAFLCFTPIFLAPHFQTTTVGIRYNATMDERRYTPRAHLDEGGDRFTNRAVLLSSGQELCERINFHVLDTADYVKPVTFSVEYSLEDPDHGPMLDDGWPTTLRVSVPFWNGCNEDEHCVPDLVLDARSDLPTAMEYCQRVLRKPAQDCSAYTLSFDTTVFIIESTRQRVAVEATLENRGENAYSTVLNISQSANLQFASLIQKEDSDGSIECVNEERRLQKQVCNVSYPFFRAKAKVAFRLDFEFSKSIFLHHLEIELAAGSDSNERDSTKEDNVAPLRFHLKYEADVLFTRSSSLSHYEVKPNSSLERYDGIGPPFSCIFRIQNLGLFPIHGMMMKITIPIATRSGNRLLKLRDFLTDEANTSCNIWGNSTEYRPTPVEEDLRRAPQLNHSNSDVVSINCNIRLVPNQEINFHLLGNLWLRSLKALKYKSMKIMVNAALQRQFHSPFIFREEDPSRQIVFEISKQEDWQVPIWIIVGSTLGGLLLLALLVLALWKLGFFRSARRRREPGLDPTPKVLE

T2: α11β1 I Domain (Homo sapiens, UniProt Q9UKX5)
T2 sequence (Q9UKX5 164-345 limits assumed): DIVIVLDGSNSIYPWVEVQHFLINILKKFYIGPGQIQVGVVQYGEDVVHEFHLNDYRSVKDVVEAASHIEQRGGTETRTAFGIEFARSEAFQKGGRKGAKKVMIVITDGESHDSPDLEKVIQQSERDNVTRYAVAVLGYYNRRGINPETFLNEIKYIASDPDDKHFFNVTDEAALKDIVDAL

B1: 9-G05: mouse anti-α11β1 mAb; VH SEQ ID NO: 103, VL SEQ ID NO: 104 (antibody, V domains shown)
VH: EVQLQQSGPELVKPGASVKIPCKASGYTFPDYNMDWVKQSHGKSLEWIGYINPDNGGTIYNQKFKGKATLTVDKSSSTAYMELRSLTSEDTAVYYCARLDSSGYGYYAMDYWGQGTSVTVSS
VL: DIVLTQSPASLAVSLGQRATISCRASESVDNYGISFMHWYQQKPGQPPKLLIYRASNLDSEIPARFSGSGSRTDFTLTIDPVETDDVATYYCQQSYKDPRTFGGGTKLEIK
B2: 9-E16: mouse anti-α11β1 mAb; VH SEQ ID NO: 111, VL SEQ ID NO: 112 (antibody, V domains shown)
VH: EVQLQQSGPELVKPGASVKISCKASGYTFTDYYMHWVKQKPGQGLEWIGEIYPGSGNPYYNEKFKGKATLTADKSSSSAYMQLSSLTSEDSAVYFCARTSYGRVGTGFAYWGQGTLVTVSA
VL: NFVMTQTPLSLPVSLGDQASISCRSSQSLLHSNGNTYLHWYLQKPGQSPKLLIYKVSNRFSGVPDRFSGSGSGTDFTLKINRVETEDLGIYFCSQSSHVPTFGAGTKLELK
B3: 8-I14: mouse anti-α11β1 mAb; VH SEQ ID NO: 109, VL SEQ ID NO: 110 (antibody, V domains shown)
VH: EVQLQQSGPELVKPGASVKKSCKASGYTFTDYYMHWVKQKPGQGLEWIGKIYPGSGNTHYNEKFKGKATLTADKSSSTAYMQLSSLTSEDSAVYFCATNYYGYRAMNYWGQGSSVTVSS
VL: DIHLTQSPSSLSASLGERISLTCRASQDIYISLNWFQQKPDGTIKLLIYGTSSLDSGVPKRFSGSRSGSDYSLTISSLESEDFADYYCLQYASSPYTFGGGTKLEIK
B4: 1994_01_D12: fully human anti-α11β1 mAb from phage display; HCDR3 SEQ ID NO: 267, LCDR3 SEQ ID NO: 334 (antibody, V domains shown)
VH: QVQLVQSGAEVKKPGSSVKVSCKASGYTFTSYGISWVRQAPGQGLEWMGWISAYNGNTNYAQKLQGRVTMTTNTSTSTAYMELRSLRSDDTAVYYCARVTGITGTTIDPWGQGTLVTVSS
VL: DIQMTQSPSSLSASVGDRVTITCRASQSISSYLNWYRQKPGKAPKLLIYAASSLQSGVPSRFSGSGSGTDFTLTISSLQPEDAATYYCQQYDSQSGTFGQGTKLEIK
B5: 24E4G6: rat anti-α11β1 mAb; VH SEQ ID NO: 147, VL SEQ ID NO: 148 (antibody, V domains shown)
VH: MELELSLIFIFSLLKDVQCEVQLVESGGSLVQPGGSLKLSCVASGYTFSNYWMDWVRQSPGKSLEWIGEINTDGRRTNYAPSIKDRFTISRDNAKSTLYLQMSNVKSDDTAIYYCTILRVYPHYFDYWGQGVMVTVSS
VL: MMSPAQFLFLLMLWIQEARGDVVMTQTPPSLSVAIGQSVSISCKSSQSLVYSDGETYLHWFLQSPGRSPKRLIYHVSNLGSGVPDRFSGTGSLTDFTLRISRVEAEDLGVYYCAQTTHFPPTFGAGTKLELK
B6: 8H8E9: rat anti-α11β1 mAb; VH SEQ ID NO: 149, VL SEQ ID NO: 150 (antibody, V domains shown)
VH: MAVLVLLLCLVTFPSCALSQVQLKESGPGLVQPSQTLSLTCTVSGFSLTSNSVSWVRQAPGKGLEWMGAIWSGGSTDYNSALKSRLSISRDTSKSQVFLKMNSLQTEDTAIYFCTRSHWEPFDYWGQGVMVTVSS
VL: MESQTQALISLLLWVYGTCGDIVMTQSPFSLAVSEGEMVTINCKSSQGLLSSGNQKNYLAWYQQRPGQSPKLLIYYASTRQSGVPDRFIGGGSGTDFTLTISDVQAEDLADYYCLQHYSYPPTFGSGTKLEIK
B7: 6E5C11: rat anti-α11β1 mAb; VH SEQ ID NO: 151, VL SEQ ID NO: 152 (antibody, V domains shown)
VH: B6 VH with K24R, S54T, A59P, G73D, A81T, N102S
VL: B6 VL with F29L, M38T, I41M, G48S, L50F, R65K, G91S, A106T, S119N

molecular target: T1, adhesion of CHO-K1 cells expressing human α11 to rat tail type I collagen; assay: Cell adhesion inhibition (CHO-K1 hu α11 cells to type I collagen, xCelligence); assay type: cell-based; settings: in words
Protocol: 0.6×10^6 cells/mL were incubated with each antibody at a range of concentrations for 20 minutes at 37° C. E-Plate VIEW 96 PET plate coated with 100 ng/ml type I collagen or PBS overnight at room temperature was blocked in 3% BSA for 1 house at room temperature. After washing the plate with PBS, cell and antibody mixture was added to the wells and the plate was places into an xCelligence machine. Cell adhesion was recorded over 6 hours. The time point of maximum cell adhesion was used for comparison relative to control.
A CHO-K1 hu α11 cell line was used to assess the ability of mAbs to block α11β1-mediated binding to type I collagen. […] In the “Untreated” condition, cells were plated on type I collagen but no antibody was added and in the “Uncoated” condition, cells were seeded onto BSA-coated wells containing no type I collagen. Statistics were performed using one-way ANOVA followed by Dunnett's multiple comparisons test. […] Therefore, it is possible that these mAbs bind on an α11β1 domain that keeps the integrin in a low or intermediate affinity state. […] Nine human mAbs were also tested for their ability to inhibit the binding of human CHO-α11 cells to type I collagen.

Molecule	Inhibition of cell adhesion to type I collagen
B1	decrease cell adhesion to collagen
B2	decrease cell adhesion to collagen

molecular target: T2, α11β1 I Domain; assay: SPR binding to α11β1 I Domain; settings: in words
Protocol: The affinity of antibodies for human α11β1 was measured by surface plasmon resonance assay (SPR). Affinity was measured at pH 7.6 and 25° C. with a Biacore T200 instrument. Anti-HIS antibody was immobilized on the SPR sensor surface using EDC/NHS covalent attachment. HIS-tagged human α11β1 was captured on the sensor surface and a single-cycle kinetics assay was used. Increasing concentrations of test antibody were injected in series over the sensor-bound α11β1. Dissociation was monitored for 1000 seconds. A sensor surface with only anti-HIS antibody and a series of blank injections were used to double-reference subtract the data. A 1:1 Langmuir model was fit to the data to estimate the kinetic association and dissociation constants. The affinity (equilibrium dissociation constant) of the interaction was calculated by dividing the kinetic dissociation constant by the kinetic association constant. Between injection cycles α11β1 and bound antibody were removed with an injection of 10 mM glycine at pH 1.5.
The binding affinity of antibodies for the α11β1 Headpiece and α11β1 I Domain as measured by SPR is shown in FIG. 10A and FIG. 10B, respectively.

Molecule	Binding to α11β1 I domain (SPR)
B1	do bind

test system: CHO-K1 human α11-mediated rat tail type I collagen gel contraction; assay: Collagen gel contraction assay; assay type: cell-based; settings: compared to untreated condition
Protocol: 24-well plates were blocked with 2% BSA in PBS overnight at 37° C. The following day, the plates were washed 3 times with PBS before being used in the assay. Human CHO cell lines expressing α11 were harvested and resuspended at 1.25×10^6 in ExpiCHO Expression Medium (Gibco™ Cat #A2910002). The collagen gel solution was prepared by diluting 3 mg/mL stock collagen type I (Gibco™ Collagen I Rat Protein, Tail Cat #A1048301) to 1 mg/mL in the media containing the CHO cells. Sodium hydroxide was added to the solution to neutralize the pH and 400 μL of the collagen solution was added to each well of the 24-well plates. For the wells where the antibodies were included in the collagen gel solution, CHO cells were prepared at 2.5×10^6 and the antibodies were prepared at 2× final concentration in ExpiCHO media. The cells and antibodies were then combined 1:1 before the addition of the stock collagen type 1. The gels were allowed to polymerize for 60 minutes at 37° C. Antibodies were added to the ExpiCHO media, which was then layered on top of the polymerized gel (400 μL/well). The gels were incubated for 6 days at 37° C. before gel contraction was quantified. Images of each well were analyzed using Image J and gel contraction was determined as a percentage of the initial gel area.
Selected exemplary antibodies were tested for the ability to inhibit cell-mediated 3D gel contraction because this ability is directly linked to the functionality of the exemplary antibodies.

Molecule	Inhibition of CHO-hu α11-mediated collagen gel contraction
B3	inhibited
B1	inhibited
B4	inhibited
B2	inhibited

molecular target: T2, α11β1 I Domain; assay: ELISA binding to in-house generated α11β1 I domain; design: An in-house generated I domain of α11β1 was used; made in house; settings: in words
Protocol: 0.25 μg/mL of target antigen (recombinant human or mouse α11β1) was plated in a 96-well plate over night at 4° C. Plates were washed (PBS with 0.1% Tween-20), blocked (PBS with 2% BSA and 0.05% Tween-20) for 1 hour at room temperature and incubated with a range of antibody concentrations for 1 hour at room temperature. Subsequently, plates were washed and incubated with biotinylated anti-rabbit/mouse/human IgG in a 1:1000 dilution buffer and incubated for 1 hour at room temperature. After washing the plates, Streptavidin HRP was added at 1:200 in dilution buffer and incubated for 1 hour at room temperature. Ultra TMB ELISA substrate solution was added and the plates incubated for 5 minutes on a plate shaker. The reaction was stopped by adding stop solution to each well and plates were read at 450 nm.
Data was also collected to determine whether antibodies of interest bind to the I domain of α11β1. An in-house generated I domain of α11β1 was used. […] Mouse antibodies 10-F23, 10-L15, 7-O8, 6-A12, 9-G05 and 9-E16 and rabbit antibodies 7-H12 and 2-D3 were also tested for binding against the in-house generated α11β1 I domain. FIGS. 3A and 3B show graphs illustrating binding data from exemplary mAbs.

Molecule	Binding to the I domain of α11β1
B5	did not bind to the I-domain
B1	I-domain binders; also recorded: bound the I domain
B6	medium
B7	low
B2	I-domain binders; also recorded: bound the I domain
